Experimental data published in patent US20170306038A1, “COMPOSITIONS AND METHODS OF USE FOR AUGMENTED IMMUNE RESPONSE AND CANCER THERAPY” (priority 2014, published 2017).

What was measured:
[1] = target: T1, human GITR (Homo sapiens, UniProt Q9Y5U5); test: NFκB-Luciferase reporter gene assay, 293 cells with human GITR; type: cell-based; settings: antibodies crosslinked
T1 construct: expressed in transfected cells; host or cells: HEK-293 (293) cells
T1 sequence (Q9Y5U5 26-241): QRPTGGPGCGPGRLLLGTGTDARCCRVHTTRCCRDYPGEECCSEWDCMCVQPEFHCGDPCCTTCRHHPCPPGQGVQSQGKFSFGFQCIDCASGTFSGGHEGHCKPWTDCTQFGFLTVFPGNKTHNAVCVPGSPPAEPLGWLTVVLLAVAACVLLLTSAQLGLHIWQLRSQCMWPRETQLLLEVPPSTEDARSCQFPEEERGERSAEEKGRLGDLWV
Protocol: To generate the 293-hGITR-NFκB reporter gene cells line, 293 cells were stably transfected with an NFκB-Luciferase reporter gene and human GITR (or cyno GITR). Activation of the GITR signaling pathway in these cells was determined by measuring the levels of luciferase induced within the cells after a 24 hour incubation with GITR-L or agonistic antibody. To assess the effects of cross-linking Abs, they were incubated with an excess of a F(ab′)2 goat anti-human Fcγ fragment specific antibody or protein A before using in the reporter gene assay.
Functional activity of MABs were tested in an NFkB reporter gene assay for agonist activity. MAB was diluted to 6 μg/mL in PBS and incubated for 30 minutes at room temperature in the presence/absence of a 3 fold excess of F(ab′)2 fragment goat anti-human Fcγ specific crosslinker. Alternatively, MAB was diluted to 6 μg/mL in PBS and incubated for 30 minutes at room temperature in the presence/absence of a 2 fold excess of Protein A. 10 μL of incubated MAB was then added to a 384 well white clear bottomed assay plate. A HEK-293 cell line stably transfected with hGITR and a NFκB reporter gene was diluted to 5×10^5 cells/mL and 20 μL of the cell suspension was added to each well. […] 30 μL of Cell Bright Glo was added to each well and the plate was read for luminescence on the Acquest.

[2] = system: cynomolgus GITR; test: ELISA binding to GITR extracellular domain, cyno
Protocol: (§1) Binding of the MABs to GITR from various species, various alanine mutant constructs or GITR extracellular domain—was assessed using a 384-well plate was coated with rat, mouse, human or cyno GITR extracellular domain (ECD) at 50 ng per well and incubated overnight at 4° C. The plate was blocked with a solution of 1% BSA in PBS for one hour at room temperature and then rinsed three times with PBST. The MAB was then diluted to 0.5 μg/mL or 1 μg/mL in PBS and 20 μL was added to each well. The plate was incubated for 1 hour at room temperature and then washed three times with PBST. Anti-human kappa antibody (Sigma #A7164), anti-human gamma antibody (Jackson Immunoresearch 109-036-098), goat anti-mouse antibody (Jackson ImmunoResearch 115-035-071) conjugated to HRP was diluted 1:5000 in Blocking Buffer (25 μL) and added to each well, or a hrp conjugated HIS antibody (QIAGEN 1014992) diluted 1:1000 in Blocking Buffer was added. The plate was incubated for 1 hour at room temperature, and then washed six times with PBST. 25 μL of SureBlue TMB (KPL 52-00-02) substrate was added to each well and the plate was incubated for about 10 min at room temperature. Plates were read at 650 nm in a spectrophotometer.

[3] = system: rodent GITR; test: ELISA binding to GITR extracellular domain, rodent; design: species or system rat, mouse
Protocol: as §1

[4] = target: T2, human GITR (Homo sapiens, UniProt Q9Y5U5); test: ELISA binding to GITR extracellular domain, human
T2 construct: coated with rat, mouse, human or cyno GITR extracellular domain (ECD) at 50 ng per well
T2 sequence (Q9Y5U5 26-162 limits assumed): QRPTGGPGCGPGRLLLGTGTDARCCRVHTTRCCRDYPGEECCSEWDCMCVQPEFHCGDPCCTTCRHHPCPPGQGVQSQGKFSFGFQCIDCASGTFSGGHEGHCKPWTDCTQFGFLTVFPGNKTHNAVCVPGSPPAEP
Protocol: as §1

B1: GITRL: recombinant human GITR ligand (GITR-L) (protein)
chain: ETAKEPCMAKFGPLPSKWQMASSEPPCVNKVSDWKLEILQNGLYLIYGQVAPNANYNDVAPFEVRLYKNKDMIQTLTNKSKIQNVGGTYELHVGDTIDLIFNSEHQVLKNNTYWGIILLANPQFIS
NFκB activity / intracellular signaling [1]: activates intracellular signaling

B2: MAB1: murine monoclonal GITR agonist antibody (parental); VH SEQ ID NO:61, VL SEQ ID NO:59 (antibody, V domains shown)
VH: QVQLKESGPGLVAPSQSLSITCTVSGFSLRSYGVDWVRQPPGKGLEWLGVIWGGGGTNYNSALMAKLSISKDKSKSQVFLKMNSLQTDDTAMYYCAKHAYGHDGGFAMDYWGQGTSVTVSS
VL: NIVMTQSPKSMSMSVGERVTLSCKASENVDTFVSWYQQKPDHSPKLLIYGASNRYTGVPDRFTGSGSATDFTLTISSVQAEDLADYHCGQSYSYPFTFGSGTKLEIK
binding to cynomolgus GITR in ELISA [2]: binds | binding to rodent GITR in ELISA [3]: not rodent GITR | binding to human GITR in ELISA [4]: binds
